From patent US20180044434A1

Key:
[1] = molecular target: T1, Ala mutant of TA0096, SEQ ID NO: 32; experiment: ELISA, coated peptide
T1 sequence (peptide): EENMDAQWMQDEMEIGY

[2] = molecular target: T2, Ala mutant having 3-amino acid substitution, SEQ ID NO: 46; experiment: ELISA, coated peptide
T2 sequence (peptide): EENMDDAAAQDEMEIGY

Binder	OD 490/630 nm [1]	OD 490/630 nm [2]
A11 (antibody, V domains shown) VH: AVTLDESGGGLQTPGGALSLVCKASGFDFSSYGMGWMRQAPGKGLEYVAAIRNDGSWTGYGAAVKGHATISRDNGQSTVRLQLNNLRAEDTGTYYCAKTTGSRGGSIDAWGHGTEVIVS VL: ASTQPSSVSANLGGTVEITCSGGGRYYYGWYQQKSPGSAPVTVIYANDKRPSDIPSRFSGSKSGSTGTLTITGVQAEDEAVYFCGSAETSSYVFGAGTTLTVL	0.628	–
E9 (antibody, V domains shown) VH: AVTLDESGGGLQTPGGTLSLVCKGSGFTFSSYGMGWMRQAPGKGLEYVAAIRNDGSWTGYGSAVKGRATISRDNGQSTVRLQLNNLRAEDTATYYCAKTSGSSGGSVDAWGHGTEVIVS VL: ASTQPSSVSANLGGTVEITCSGGGRYYYGWYQQKSPGSAPVTVIYANDKRPSDIPSRFSGSKSGSTGTLTITGVQAEDEAVYFCGSAETSSYVFGAGTTLTVL	0.177	–
G8 (antibody, V domains shown) VH: AVTLDESGGGLQTPGGALSLVCKASGFTFSTYAMGWMRQAPGKGLEYVAAIRNDGSWTGYGAAVKGRATILRDNGQSTVRLQLSNLRAEDTGTYYCAKYTGSSGGSIGAWGHGTEVIVS VL: ASTQPSSVSANLGGTVEITCSGGNRNYYYGWYQQKSPGSAPVTLIYANDKRPSNIPSRFSGSKSGSTGTLTITGVQAEDEAVYFCGTADTGKYVFGAGTTLTVL	–	0.178
